{"source": "the nanobody polyreactivity screen of Harvey et al. (2022)"}
{"experiment": "yeast display, Sf9 membrane polyspecificity reagent, FACS + sequencing; frameworks hold sequencing errors", "procedure,_shortened": "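In a synthetic yeast display library (Saccharomyces cerevisiae BJ5465), nanobody expression was induced with galactose for 36–48 hours. FACS gates were set low and high (top ~1%) using anti-HA fluorescence for expression and streptavidin fluorescence for binding of the Sf9 membrane reagent. Each polyreactivity label is drawn from the gate of origin.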"}
{"sequence": "QVQLVESGGGLVQAGGSLRLSCAASGSTFRVYAMGWYRQAPRKERELVAAISKSGVSTYYADSVKGRFTISRDNAMNTVYLQMNSLKPEDTAVYYCPVFLGYSRKYDYWGQGTQVTVSS", "polyreactivity (PSR sort gate)": "high polyreactivity"}
{"sequence": "QVQLVESGGGLVQAGGSLRLSCAASGSTFRWYAMGWYRQAPGTERELVAAISVSTGSTYYADSVKGRFTISRDNAKNTVYVQMNTLKPEDTGVYYCNKVYGWRQFDYWGQGTQVTVSS", "polyreactivity (PSR sort gate)": "high polyreactivity"}
{"sequence": "QVQLVESGGGLVQAGGSLRLSCAASGSTFRWYTMGWYRQAPGKERELVATISSSTDITYYADSVKGRFTISRDNAKNTVYLQMNSLKPEDTAVYYCAARRVYHYRYYYWGQGTQVTVSS", "polyreactivity (PSR sort gate)": "high polyreactivity"}
{"sequence": "QVQLVESGGGLVQAGGSLRLSCAASGSTFRYNAMGWYRQAPGKERELVAAITSGGTTNYADSVKGRFTISRDNAMNTVYLQMNILKPEDTAVYYCGKRGYYWTNLLYFLGYDYWGQGTQVTVSS", "polyreactivity (PSR sort gate)": "low polyreactivity"}
{"sequence": "QVQLVESGGGLVQAGGSLRLSCAASGSTFRYNDMGWYIQAPGKERELVDAITRSDSTNYADSVKGRFTISRDNAKNTVYLQMNSLKPEDTAVYYCAARRHYTYGNGPSRGGQMDYWGQGTQVTVSS", "polyreactivity (PSR sort gate)": "high polyreactivity"}
{"sequence": "QVQLVESGGGLVQAGGSLRLSCAASGSTFRYNTMGWYRQAPGKEMELVARITSVGSTNYADSVKGRFTISRDNAKNTVYFQMNSLKPEDTAVYYCATTRPIRRTSARYNYWGQGTQVTVSS", "polyreactivity (PSR sort gate)": "low polyreactivity"}
{"sequence": "QVQLVESGGGLVQAGGSLRLSCAASGSTFRYNTMGWYRQAPGKERELVAAINISSSSTYYADSVKGRFTISRDNAKNTVYLQMNSLKPEDTAVYYCAKRDYVPIATDENDDYWGQGTQVTVSS", "polyreactivity (PSR sort gate)": "low polyreactivity"}
{"sequence": "QVQLVESGGGLVQAGGSLRLSCAASGSTFRYYAMGWSRQAPGKERELVAAISRSGTSTYYADSVKGRFTISRDNAKNTVYLQMNSLKPEDTAVYYCAADWHSKIGKGYDYWGQGTQVTVSS", "polyreactivity (PSR sort gate)": "high polyreactivity"}
{"sequence": "QVQLVESGGGLVQAGGSLRLSCAASGSTFRYYAMGWYRLAPGKERELVAAITASGTSTYYADSVKGRFTISRDNAKNTVYLQMNSLKPEDTAVYYCAARWRYGYYWGQGTQVTVSS", "polyreactivity (PSR sort gate)": "high polyreactivity"}
{"sequence": "QVQLVESGGGLVQAGGSLRLSCAASGSTFRYYAMGWYRQAPGKERELVAAIDRSGGNTYYADSVKGRFTISRDNAKNTVYLQMYSLKPEDTAVYYCNTASWRAQYYYWGQGTQVTVSS", "polyreactivity (PSR sort gate)": "high polyreactivity"}
{"sequence": "QVQLVESGGGLVQAGGSLRLSCAASGSTFRYYAMGWYRQAPGKERELVAAIRSGGGTYYADSVKGRFTISRDNAKTTVYLQMNSLKPEDTAVYYCAARSYSRRVSYYYWGQGTQVTVSS", "polyreactivity (PSR sort gate)": "high polyreactivity"}
{"sequence": "QVQLVESGGGLVQAGGSLRLSCAASGSTFRYYAMGWYRQAPGKERELVAAISARGTSTYYADSVKGRFTISRDNAKNTVYLQMNSLKPEDTAVYYCNDYLHATEYDYWGQGTQVTVSS", "polyreactivity (PSR sort gate)": "high polyreactivity"}
{"sequence": "QVQLVESGGGLVQAGGSLRLSCAASGSTFRYYAMGWYRQAPGKERELVAAISGSGGRTYYADSVKGRFTISRDNAKNTVYLQMYSLKPEDTAVYYCNTRGRRTDYDYWGQGTQVTVSS", "polyreactivity (PSR sort gate)": "high polyreactivity"}
{"sequence": "QVQLVESGGGLVQAGGSLRLSCAASGSTFRYYAMGWYRQAPGKERELVAAISRSGTSTYYADSVKGRFTISRDNAKKTVYLQMNSLKPEDTAVYYCAADWHSKIGKGYDYWGQGTQVTVSS", "polyreactivity (PSR sort gate)": "high polyreactivity"}
{"sequence": "QVQLVESGGGLVQAGGSLRLSCAASGSTFRYYAMGWYRQAPGKERELVAAITKNGGSTYYADSVKGRFTISRDNAKNTVYLQMNSLKPEDTAVYYCADQYSYSGWYYVSYYYWGQGTQVTVSS", "polyreactivity (PSR sort gate)": "high polyreactivity"}
{"sequence": "QVQLVESGGGLVQAGGSLRLSCAASGSTFRYYAMGWYRQAPGKERELVAGICSGGTTKYADSVKGRFTISRDNAKNTVYLQMNSLKPEDSAVYYCAARFRRTRVTYYYWGQGTQVTVSS", "polyreactivity (PSR sort gate)": "high polyreactivity"}
{"sequence": "QVQLVESGGGLVQAGGSLRLSCAASGSTFRYYAMGWYRQAPGKERELVAVISTSGNTYYADSVKGRFTISRDNAKNTVYLQMNSLKPEDTAVYYCAARGVGGQISQEYDYWGQGTQVTVSS", "polyreactivity (PSR sort gate)": "low polyreactivity"}
{"sequence": "QVQLVESGGGLVQAGGSLRLSCAASGSTFRYYAMGWYRQAPGKEREMVAAISTSGGRTYYADSVKGRFTISRDNAKNTVYLQLNSLKPEDTAVYYCNARESRGYSYQTWKYYYWGQGTQVTVSS", "polyreactivity (PSR sort gate)": "high polyreactivity"}
{"sequence": "QVQLVESGGGLVQAGGSLRLSCAASGSTFRYYGMGWYRQAPGKERELVAAISTGGRTNYADSVKGRFTISRDNAKNTVYLQMNSLKPEDTAVYYCAADFLSPAYRPSWYRFDYWGQGTQVTVSS", "polyreactivity (PSR sort gate)": "low polyreactivity"}
{"sequence": "QVQLVESGGGLVQAGGSLRLSCAASGSTFRYYGMGWYRQAPGKERELVADITSGGTTDYADSVKGRFTISRDNAKNTVYLQMNSLKPEDTAVYYCAAGRWYKRQSTWGFGLDHDYWGQGTQVTVSS", "polyreactivity (PSR sort gate)": "low polyreactivity"}
{"sequence": "QVQLVESGGGLVQAGGSLRLSCAASGSTFRYYTMGWYRQAPGKEREFVASISRSGGSTYYADSVKGRFTISRDNAKNTVYLQMNSLKPEDTAVYYCNAVKGSYSRSQGNEYWGQGTQVTVSS", "polyreactivity (PSR sort gate)": "high polyreactivity"}
{"sequence": "QVQLVESGGGLVQAGGSLRLSCAASGSTFRYYTMGWYRQAPGKERELVAAISWSGGITYYADSVKGRFTISRDNAKNTVYLQMNSLKPEDTAVYYCAADWWAWRAYYYWGQGTQVTVSS", "polyreactivity (PSR sort gate)": "high polyreactivity"}
{"sequence": "QVQLVESGGGLVQAGGSLRLSCAASGSTFRYYTMGWYRQAPGKERELVAAITYSGGSTYYADSVKGRFTISRDNAKNTVYLQMNSLKPEDTAVYYCAKRWSQPKYDYWGQGTQVTVSS", "polyreactivity (PSR sort gate)": "high polyreactivity"}
{"sequence": "QVQLVESGGGLVQAGGSLRLSCAASGSTFRYYTMGWYRQAPGKERELVASISRSGSTSYADSVKGRFTISRDNAKNTVYLLMNSLKPEDTAVYYCARESFFGAYAGYDYWGQGTQVTVSS", "polyreactivity (PSR sort gate)": "low polyreactivity"}
{"sequence": "QVQLVESGGGLVQAGGSLRLSCAASGSTFSAKTIGGYRQAPGKEMELVAGITITGDTYYADSVKGRFTISRDNAKNTVYLQMNSLKPEDTAVYYCAAAWYEPATQTGYFEFDYWGQGTQVTVSS", "polyreactivity (PSR sort gate)": "low polyreactivity"}
{"sequence": "QVQLVESGGGLVQAGGSLRLSCAASGSTFSANAMGWYRQAPGKERELVAAITYRGGNTYYADSVKGRFTISRDNAKNTVYLQMNSLKPEETAVYYCNRDLRVRYRRLKYGYWGQGTQVTVSS", "polyreactivity (PSR sort gate)": "low polyreactivity"}
{"sequence": "QVQLVESGGGLVQAGGSLRLSCAASGSTFSANTMGWYRQAPGKERELVAAISSSGVGTRYADSVKGRFTISRDNAKNTVYLQMNSLKPEDTSVFYCAADYRPTVITRNDYWGQGTQVTVSS", "polyreactivity (PSR sort gate)": "low polyreactivity"}
{"sequence": "QVQLVESGGGLVQAGGSLRLSCAASGSTFSAYAMGWYRQAPGKERELVAAISRSGTRTYYADSVKGRFTISRDNAKNNVYLQMNSLKPEDTAVYYCARYAGRLSYRYEYWGQGTQVTVSS", "polyreactivity (PSR sort gate)": "high polyreactivity"}
{"sequence": "QVQLVESGGGLVQAGGSLRLSCAASGSTFSAYTMGWYRQAPGKERELVARITNGGSTYYAESVKGRFTISRDNAKNTVYLQMNSLKPEDTAVYYCAAQLGWWGSGYWGQGTQVTLSS", "polyreactivity (PSR sort gate)": "high polyreactivity"}
{"sequence": "QVQLVESGGGLVQAGGSLRLSCAASGSTFSDYTMGWFRQAPGKERELVAAITTIGGSTYYADSVKGRFTISRDNAKNTVYLQMNSLKPEDTAVYYCAASYYYPLEYYYWGQGTQVTVSS", "polyreactivity (PSR sort gate)": "low polyreactivity"}
{"sequence": "QVQLVESGGGLVQAGGSLRLSCAASGSTFSDYTMGWSRQAPGKDRVLVAALNAGGSTNYADSVKGRFTISRDNAKNTVYLQMNSLKPEDTAVYYSNADSSYLANGYWDPDYTPYDSWGQGTQVTVSS", "polyreactivity (PSR sort gate)": "low polyreactivity"}
